The results in this text go back to a protein production outcome set (Wang et al. 2014).

The nature of this data set: label from the status in PepcDB records.
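Also: failed if final PepcDB status was selected cloned or expressed and not failed if soluble or beyond.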

Consider “MKAVLFDLDGTLIDTAADFIRIIQEMCREEQREVVDADLIRTQVSEGARAMVKLVYPELAVDDAVFLTHRQRFLDRYEQNIVVDTDLFKGMYPLLEMLESQQIPWGIVTNKPRHLTELLLERLNLTERCAVLVCPEDVQRTKPDPEPMFLAATQLHIAPEQIIYVGDHPRDIDAGRAAHMYTILAAYGYLPLQHKDNLNAWQADVIVQHVTELQKILSQQLHITPLNQDTMLQTS”, for which the protein production entry is listed as “failed”.

Take “MKAVRVHILGSGGREHAIGWAFAKQGYEVHFYPGNAGTKRDGTNHPYEGEKTLKAIPEEDIVIPGSEEFLVEGVSNWRSNVFGPVKEVARLEGSKVYAKRFMKKYGIRTARFEVAETPEELREKIKKFSPPYVIKADGLARGKGVLILDSKEETIEKGSKLIIGELIKGVKGPVVIDEFLAGNELSAMAVVNGRNFVILPFVRDYKRLMDGDRGPNTGGMGSWGPVEIPSDTIKKIEELFDKTLWGVEKEGYAYRGFLYLGLMLHDGDPYILEYNVRLGDPETEVIVTLNPEGFVNAVLEGYRGGKMEPVEPRGFAVDVVLAARGYPDAPEKGKEITLPEEGLIFFAGVAEKDGKLVTNGGRVLHCMGTGETKEEARRKAYELAEKVHFEGKTYRRDIAL”: the protein production entry is on record as “not failed”.

On to “MKDCCGGYESEELLMDFSGKDKAAYVQDTFNSIAKRYDVMNTLMSFGLDKGWRKKAVQTVEAKPGMTMVDICCGTAQLSLELAMTVGEQGQITGLDFSENMLKKAQENLAGSPYRSIIELRQGDAMNLPFADNSFDGATVGWGLRNLPDLEKGVQEMIRVVKPGGMVVSLDMAKPTMPGFKQGYWLYFNKLVPLMGKIWAGKAKAYQYLHDSAVEFPSQQELANIFARCGLTETRYQNLAGGVVAIVSGRKPR”, for which the protein production result is “failed”.

For “MKDFWTWERLSFHMVLAYNDDRSFLINTGMPLDLTLRNQEMKKFAGDRAIFRSEDSIEMLRKAGFTPDDIDYVALTPVQDYTIGRLNEFRKSKIFIFRDGWIKDIAAPAYAYFHNRDLFIPKNIFDFVYGEGWKNIIFYDGETELVPGIRAIPVGCHHRSSVAFAINAKDGTYVFTDASFKAENVRNRIPIGIAENIYECLSAYEKIEKIGKLLPAYDPAIDDLYIKLEHHHHHH”, the protein production entry was “not failed”.

For the sequence “MKDIVIIGTENIGKEVVKIIEAINSKRNTWNVLGFISLKKDEEGSNIEGYSVLESIDSMFNYFEGRKKDKFYFFKKLESQNELFTIIAIDNCKLKKEIENKLKNKIKFATIIHPDVSFFNKQEVGEGTIIYPGLIVVGRFKLGKHVILKQKCSLGNNIEIGDYSFISFNSNIDSNVMVKEGSYIEANTTILANSNIDKNTYIKEGSILY”, the protein production entry is “failed”.

Consider “MKDIYELLNDIDIDEKELEEIEASEIEKEKVKRNVKQSIRTKKKMKSWKKGVAAASILVGLSVTTLGIGFPTYAGGLPIVGDIFRFLDNGRTGLYENYKEFSTELNMTRESNGVKVTINDVISDGRTLSITYSLESEQDLGDDPIILGGLDIMDAHGSSGSGKMTKVTEKKYVGMVTTTHHDSNKKDKVNFRWNIEGIEIPDRKKSIQGHWNFALTVKSMDSKERTIGGSSEKEGIKANMEKVAMSPVSFILYYNQEVSKGARKEWDSVDVELTVKDDLGNDYSGEGNGGSGNDPYNIRWSATFQKLNENATKLIVTPRVHLRVHTPENHGGVEYVNGKEKKIEVPNKEAKKKDIVLDDIVIDLKK”, for which the protein production entry is “not failed”.

For “MKDNTPASSPERWIIYGANGYTGELIAREAVKRGHHPILAGRSLEKVQSLAAELGLQSLAFSLEDKSSAVQHISGSSLVLNCAGPFSSTAKPMMKACLEAGAHYLDITGEISVFEFAQTLQSQAKEASVVLCSGVGFDVIPTDCIAATLKAALPDATHLSLGFDSRSGFSPGTAKTSVEGLAQGGKVRLNGKITTVPLAYKVHNIDFGDGEKLAMTIPWGDVSTAYYTTGIENIDVFIPGSPNMIKNAKRANWVRPLLGITWVQNLIKSRIERTVKGPNEEQRNQLPTYVWGKASNKLGQSKTARVQTANGYSLTVTGSLAIVEHLLHTKPEAGVYTPSKLMGSNFVSQLPGSSGITIEE”, the protein production entry is “failed”.

For “MKDSMFLYEFDLFRYSKDLTALSFLLLIGSSLTVHWVSLSMSSSRDLLHYLVLPLILVVILHEGLHALTAKLSGAKTSLGVLTKYGIILAVYVGINTPLPVKKIRYITIAPIIISIVAFFFSWVTYSPFWAILYIFNTTGIVGDLIVFLVLSKMPSDAIVVDEGTIMKSNAEFPEPYPSWFSKLIIGLAVLVFLYILTNIRIEFEVVGTLPNQTMPVNSHFE”, the protein production entry is “failed”.

In the case of “MKEDAGNPLHLTSLNHVSVLCRSVDESMNFYQKVLGFIPIRRPESLNFEGAWLFGHGIGIHLLCAPEPEKLPKKTAINPKDNHISFQCESMGVVEKKLEEMGIDYVRALVEEGGIQVDQLFFHDPDGFMIEICNCDSLPVVPLVGEMARSCSRVKLHQMVQPQPQTQIHQVVYP”, the protein production entry is reported as “failed”.

Regarding “MKEELFKEKSRYITGFVLIIVADLILYADNLLLFWAVLGGIYAVGFSEALRLFQVKASFSLYLILVLSWVAAYFNGRPIECALISAMVMASVIAYQKAHHSEAILPFLYPGVGFFALFGVYKDFGAVAIIWLLVVVVASDVGAFFGGKLLGKTPFTPTSPNKTLEGALIGVVLASVLGSFVGMGKLSGGFFMALFFSFLIALVAVFGDLYESYLKRKVGIKDSGKILPGHGGVLDRLDSMLFGALGLHALLYFLEIWKETAVFLGD”, the protein production entry is listed as “failed”.

For “MKEIDELTIKEYGVDSRILMERAGISVVLAMEEELGNLSDYRFLVLCGGGNNGGDGFVVARNLLGVVKDVLVVFLGKKKTPDCEYNYGLYKKFGGKVVEQFEPSILNEFDVVVDAIFGTGLRGEITGEYAEIINLVNKSGKVVVSVDVPSGIDSNTGKVLRTAVKADLTVTFGVPKIGHILFPGRDLTGKLKVANIGHPVHLINSINRYVITREMVRSLLPERPRDSHKGTYGKVLIIAGSRLYSGAPVLSGMGSLKVGTGLVKLAVPFPQNLIATSRFPELISVPIDTEKGFFSLQNLQECLELSKDVDVVAIGPGLGNNEHVREFVNEFLKTLEKPAVIDADAINVLDTSVLKERKSPAVLTPHPGEMARLVKKTVGDVKYNYELAEEFAKENDCVLVLKSATTIVTDGEKTLFNITGNTGLSKGGSGDVLTGMIAGFIAQGLSPLEASTVSVYLHGFAAELFEQDERGLTASELLRLIPEAIRRLKE”, the protein production result is on record as “not failed”.

As for “MKEIQYEIVKEIAVLSASDSGYTKEINLISWNGREPKYDIRSFSPNREKCGKGITLNADEAAALLEALQKEVNSGD”, the protein production entry is “failed”.

Consider “MKEKVQSPELRFDGFTDGWEQRKFADFIDVKSGKDYKHLNSGSIPVYGTGGYMLSVDRALSDIDAIGFGRKGTIDKPYLLKAPFWTVDTFFYAVPKQNIDLQFSLSIF”, for which the protein production result is on record as “failed”.

Regarding “MKELSKSDRTRQFIIESTAPVFNVKGLAGTSLTDLTEATNLTKGSIYGNFENKEAVAIAAFDYNWGHVKSVLTAKVQACNTYKEMLLVYSSMYNDADGSLFPVGGCPLLNTTIEADDTHDALRKKAGEAILSWKKNLVTIIKKGIQAKEFRPDTDVTKIAFSMIALVEGAILIHRATKNRAYSDYVFESLEDLIAGIEVKKK”, the protein production entry is recorded as “not failed”.

As for “MKENLELVEFFEYLLILVLNMLVASIVFLQEYCIGSIRLSHYRRIFATVMAIRSLVSIWIIYPMTATLLGTLNILVIQSIILLFLWGLMQCVKKYRGKWYITMIALIIYGLSCYFHIMYAKTV”, the protein production entry is recorded as “failed”.

For “MKEQYRNQNTFLSMIDMDLIRRGLLHAIQDLVFIVKVMDDETFTYIYVNKIGMDYAKLSEECYGKTFSEVLPKDTAEILQVQYAKVASEVKAHTFCDVVSLPTGNLHYESSLNPVFDEEGVCQFIICITRDIT”, the protein production entry is given as “failed”.

On to “MKFAFVFPGQGSQSVGMLNAFADVAVVRETLDEASDALGQDIGKLIADGPADELNLTTNTQPVMLTAAYACYRAWQQAGGAQPSIVAGHSLGEYTALVAAGAIAFRDALPLVRFRAQAMQTAVPVGVGGMAAILGLDDDTVRAVCAEASATGVVEAVNFNAPAQVVIAGTKAGIEKACEIAKEKGAKRALPLPVSAPFHSSLLKPASDKLREYLAGVDVKAPKISVVNNIDVAVVSDPAAIKDALVRQAAGPVRWVECVQHIAREGVTHVIECGPGKVLAGLTKRIDGNLVGASVFDPASLDEALKLAAA”, for which the protein production entry is given as “not failed”.

For the sequence “MKFFQRTVLEPAYQGAQLHPGKLSGIYQNEILCNSLFHHYKQRTLKLGRELESRLKHLYHLVRMALPGTVSANTTRRSPANSIHTEVQIDSRTDTHLPQVSDDEDLRWIRTGLPHQYHAYLAIDRLKSSHHLAGQSVLCIGGRAALYPNYHQLIEAAGGHFMVFRGGAQDNSECLLALLARVDSIICPVDCINHEDFFTVRRYCQRTGKNCVMLERSDLVTFGKAVETLARGDCHNSETLEHHHHHH”, the protein production entry is reported as “failed”.

Take “MKFGRRATSRTEPGKRCVARPRYNSAMSEFTDSAAGRSATSPADASSSALRRLRAIQPLPDQLISQIAAGEVVERPASVVKELVENALDAGAGTLRILLDEGGVKRISITDDGCGIPAAELPLALMRHATSKIRSLAELEAVATLGFRGEALASIASVAEMFITSRTEDDAHATRIDAQTGVLAPAAGTRGTTIEVRELYFSTPARRKFLKSEQTEFGHCLEMIRRAALARPDVAISVLHNGRAVEHWNASEPAARVAKILGDGFATAHLPLDERAGPLAVYGCAGLPTASRGRADQQYFFVNGRFVRDKLLTHAVRAAYEDVLHGDRYPSYVLFLDLPPEAVDVNVHPSKIEVRFRDSRSIHQFVFHAVQRALARHAGASPETTAGGHAAHLSPVEPAQAGSPAAPSASFVRPDAAAAGAGVGHPAPGNTWLRQSRMTQGTLPVAQPLALYDALFGRKDSGAGTPHGTTGVLEARDAPDAPGAPLFASAPGGAAMPAFSAAGASDPAMHDEQPLGFAVGQIHGIYVLAQNARGLVIVDMHAAHERILYEQFKRALADRTVAVQTLLIPVSMTATPVEVGTAEEERETLDALGFDLAVLSPTTLAIRAVPALLKDADLQALARAVLADLHAFGGSRVLTERQHELLGTLACHHAVRANRRLTLDEMNALLRQMEATERADQCNHGRPTWYQLTLGDLDKLFMRGQ”: the protein production result is “failed”.

Take “MKFILRLGLALLTGFVSVSTASAQAYGTADTNAPELRVPKSVQPAFDYWMRDTWATLGPDGYYYITGTTSTPDRHFPGQRHCWDWNDGLYLWRSKDLKIWEAMGRIWSMEKDGTWQKDPKVYKEGEKYAKKSINNDPMDNRFHAVWAPEMHYIKSAKNWFIVACMNQSAGGRGSFILRSTTGKPEGPYENIEGNEDKAIFPNIDGSLFEDTDGTVYFVGHNHYIARMKPDMSGLAEEIKTLKESKYSPEPYVEGAFIFKYDGKYHLVQAIWAHRTVKGDTYVEKEGLTNKKTRYSYDCIIATADNVYGPYGKRYNAITGGGHNNLFQDKDGNWWATMFFNPRGAQAAEYKVTCRPGLIPMLYENGKFKPNHNYQAK”: the protein production result is “failed”.

“MKFIRRCMMETRYTVRQAVEMTGVKSYVLRYWEEELELQIHRNELGHRYYTGYDIQLFLNIKELKKRGLQLRAIKNLIPQITASMTGFGESASTLLEGEVIDHAEVKTDRDLKEKISKKDEGKNDKILEFQAILERLITQELKAQNEDEERCRSLDYAIRRQQLARKEAAAAAEKKSGRRRRDK”: the protein production result is listed as “not failed”.

On to “MKFKRLRTSENKLYYKAMELYKISFPFHEQRKSSLQEEILKNKEYQFNLIYDKNQFVGIILCWETDDFIYVEHFCIFPEMRNNRYGQRALELLNKKGKTIILEIDLPIDEISIYRKAFYERVKYKTNNYEHIHPPYHEKFNGHNLIVMSYPEKLSKMEYDKFNHYLRNNVMSF”, for which the protein production entry was “failed”.

As to “MKFLTTNFLKCSVKACDTSNDNFPLQYDGSKCQLVQDESIEFNPEFLLNIVDRVDWPAVLTVAAELGNNALPPTKPSFPSSIQELTDDDMAILNDLHTLLLQTSIAEGEMKCRNCGHIYYIKNGIPNLLLPPHLV”, the protein production result was “failed”.
